Assay results as given in patent US20080057516A1 (published 2008).
Each block holds one binder with its values, some of them ahead of it.

Experiments:
[1] = molecular target: T1, Syndecan-3 ectodomain purified from early postnatal rat brain (rat, UniProt P33671 45-387, carries natural heparan sulfate (HS) side chains; attachment residues not stated); test: SPR (IAsys), GFL immobilised, syndecan-3 ectodomain in solution; equilibrium response; equilibrium response only; syndecan-3 concentrations limiting, dynamics could not be fit
T1 construct: extracellular domain; Native proteoglycan; also called S3; extracellular domain of syndecan-3
T1 sequence (P33671 45-387): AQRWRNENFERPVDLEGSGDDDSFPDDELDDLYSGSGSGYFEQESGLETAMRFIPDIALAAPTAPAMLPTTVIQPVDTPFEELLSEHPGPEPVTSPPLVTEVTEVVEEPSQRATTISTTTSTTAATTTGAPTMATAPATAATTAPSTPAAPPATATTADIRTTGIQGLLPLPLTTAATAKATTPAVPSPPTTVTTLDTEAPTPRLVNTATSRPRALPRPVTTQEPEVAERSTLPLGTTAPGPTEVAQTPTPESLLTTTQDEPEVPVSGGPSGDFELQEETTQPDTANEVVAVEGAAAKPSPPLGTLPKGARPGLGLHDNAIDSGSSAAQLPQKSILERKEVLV

[2] = molecular target: T1, Syndecan-3 ectodomain purified from …; test: SPR (IAsys), GFL immobilised on aminosilane cuvette, syndecan-3 ectodomain in solution
Description: (§1) The affinities of GFLs for heparin and heparin-like molecules (e.g. syndecan-3) were determined by plasmon surface resonance using the IAsys system (Affinity Sensors, Cambridge, UK). Planar aminosilane cuvettes (Affinity Sensors) were used for protein coupling to avoid problems with mass transport, which occur frequently with matrix surfaces. In the initial approach, heparin-BSA was immobilized to the cuvette surface using the manufacturer's instructions and different ligand concentrations were used to determine association (kₐ) and dissociation (kdis) rates using the IAsys Fastfit software. The dissociation constant Kd was determined from the binding dynamics as […], or from equilibrium response (R) using a simple Langmuir fit: R=(Rₘₐₓ*C)/(Kd+C), where C is the ligand concentration. […] The dissociation constants were determined from binding dynamics and equilibrium response. The same cuvettes were used to test binding of heparan sulfate proteoglycan syndecan-3, which was purified as an ectodomain from early postnatal rat brains by HB-GAM affinity chromatography (Raulo et al., 1994).
(§2) Binding was analyzed using IAsys cuvettes with immobilized heparin-BSA or GFLs. The dissociation constant Kd was determined from dynamics of association and dissociation (Kd=kdis/kₐ), or from equilibrium response R (R=(Rₘₐₓ*C)/(Kd+C), where C is ligand concentration).

[3] = molecular target: T1, Syndecan-3 ectodomain purified from …; test: SPR (IAsys), GFL immobilised, syndecan-3 ectodomain in solution; Kd = kdis/ka
Description: as §1, §2

[4] = molecular target: T1, Syndecan-3 ectodomain purified from …; test: SPR (IAsys), GFL immobilised, syndecan-3 ectodomain in solution; equilibrium response
Description: as §1, §2

[5] = molecular target: T1, Syndecan-3 ectodomain purified from …; test: SPR (IAsys optical biosensor): ARTN immobilized on the aminosilane cuvette, syndecan-3 ectodomain (S3) in solution at 0 to about 95 nM. Kd from the equilibrium response (insert of the ARTN panel)
Description: as §1

B1: Persephin (PSPN) (ligand, UniProt O60542 61-156, looked up)
chain: ALSGPCQLWSLTLSVAELGLGYASEEKVIFRYCAGSCPRGARTQHGLALARLQGQGRAHGGPCCRPTRYTDVAFLDDRHRWQRLPQLSAAACGCGG
Kd [1]: > 70 nM

B3: Artemin (ARTN) (ligand, UniProt Q5T4W7 108-220, looked up)
chain: AGGPGSRARAAGARGCRLRSQLVPVRALGLGHRSDELVRFRFCSGSCRRARSPHDLSLASLLGAGALRPPPGSRPVSQPCCRPTRYEAVSFMDVNSTWRTVDRLSATACGCLG
Kd [5]: 21.1 nM
koff [2]: 0.034 s⁻¹
kon [2]: 630000 M⁻¹ s⁻¹
Kd [3]: 53.9 nM
Kd [4]: 21.2 nM

Results, then the binder that gave them:

koff [2]: 0.021 s⁻¹
kon [2]: 750000 M⁻¹ s⁻¹
Kd [3]: 26.3 nM
Kd [4]: 28.5 nM
B2: Neurturin (NRTN) (ligand, UniProt Q99748 96-197, looked up)
chain: ARLGARPCGLRELEVRVSELGLGYASDETVLFRYCAGACEAAARVYDLGLRRLRQRRRLRRERVRAQPCCRPTAYEDEVSFLDAHSRYHTVHELSARECACV

koff [2]: 0.015 s⁻¹
kon [2]: 1.3e+06 M⁻¹ s⁻¹
Kd [3]: 11.5 nM
Kd [4]: 12 nM
B4: Glial cell line-derived neurotrophic factor (GDNF) (ligand, UniProt P39905 78-211, looked up)
chain: SPDKQMAVLPRRERNRQAAAANPENSRGKGRRGQRGKNRGCVLTAIHLNVTDLGLGYETKEELIFRYCSGSCDAAETTYDKILKNLSRNRRLVSDKVGQACCRPIAFDDDLSFLDDNLVYHILRKHSAKRCGCI
notes: Immobilised on an aminosilane cuvette for SPR, or coated on plastic, glass or filters for the cell assays; also called wtGDNF; unlabeled (Cold) GDNF
